Reference: patent US20250011869A1, “TLR3 INHIBITORS FOR USE IN THE TREATMENT OF DISEASES ASSOCIATED WITH CARDIOVASCULAR CALCIFICATION” (priority 2021, published 2025)

Biological target: T1, human TLR3 ectodomain (huTLR3-ECD) (Homo sapiens, UniProt O15455)
T1 construct: The human TLR3-ECD (27-700) was modified with an N-terminal gb67 leader and a C-terminal 6× poly histidine tag; gb67 (gp67) secretion leader (N); 6xHis (C); made in house; host or cells: Sf21 insect cells (baculovirus, pFastBac1, Bac-to-Bac)
Assay: In vitro binding by co-immunoprecipitation
Conditions: purified TLR3 ectodomain and purified BGN
Procedure: The human TLR3-ECD (27-700) was modified with an N-terminal gb67 leader and a C-terminal 6× poly histidine tag and the sequence was produced synthetically (Geneart) and cloned into a pFastBac1 vector. The virus was generated and amplified at large scale levels using a Sf21 insect cell-line (Bac-to-Bac®). One liter Sf21 cell culture was infected and harvested at 72 hours. The culture was centrifuged at 1000×g for 30 min and the supernatant was filtered through a 0.2 μm nitrocellulose membrane. The filtrate was loaded onto a 5 ml His Trap EXCEL column (GE, 17-3712-06) using a peristaltic pump. […] The protein fractions were analyzed by SDS-PAGE and TLR3 containing fractions were pooled and concentrated to a final volume of ˜500 μl using a spin concentrator (Vivaspin®20) with a 10 kDa molecular weight cut-off. […] TLR3 containing fractions were analyzed by SDS-PAGE and pooled and concentrated to 1 mg/ml. Protein concentration was estimated using a Nano Drop by measuring the absorbance at 280 nm (MW=[…], ε=61.9 mol^−1 cm^−1).
The human BGN (38-368) was modified with an N-terminal Secrecon tag followed by a 6× poly histidine tag and a Strep-Tag II. […] The protein fractions were analyzed by SDS-PAGE and BGN containing fractions were pooled and concentrated to a final volume of ˜500 μl using a spin concentrator (Vivaspin®20) with a 10 kDa molecular weight cut-off. […]

B1: BGN: proteoglycan biglycan (BGN), a structural protein of the extracellular matrix (ECM) (protein)
chain: DEEASGAETTSGIPDLDSLPPTYSAMCPFGCHCHLRVVQCSDLGLKAVPKEISPDTTLLDLQNNDISELRKDDFKGLQHLYALVLVNNKISKIHEKAFSPLRKLQKLYISKNHLVEIPPNLPSSLVELRIHDNRIRKVPKGVFSGLRNMNCIEMGGNPLENSGFEPGAFDGLKLNYLRISEAKLTGIPKDLPETLNELHLDHNKIQAIELEDLLRYSKLYRLGLGHNQIRMIENGSLSFLPTLRELHLDNNKLSRVPAGLPDLKLLQVVYLHTNNITKVGVNDFCPVGFGVKRAYYNGISLFNNPVPYWEVQPATFRCVTDRLAIQFGNYKK
  interaction with huTLR3-ECD by immunoprecipitation: confirmed this interaction
